Measured values as given in US20150344570A1 (published 2015).

T1: FcγRIIb (human, UniProt P31994 43-217)
T1 construct: extracellular domain; also called FcgRIIb; CD32B
T1 sequence (looked up): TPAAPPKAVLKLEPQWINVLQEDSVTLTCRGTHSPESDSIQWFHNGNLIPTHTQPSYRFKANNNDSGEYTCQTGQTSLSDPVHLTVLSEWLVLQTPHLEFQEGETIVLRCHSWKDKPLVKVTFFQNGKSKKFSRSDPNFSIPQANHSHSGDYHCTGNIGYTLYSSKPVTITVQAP

B1: GpH7-A5/GpH7-B3 variant L328_01G/GpL16-k0 (antibody, human IgG1, kappa)
heavy 1: not shown
heavy 2: not shown
light: DIVMTQSPLSLPVTPGEPASISCQASESLVHSNRNTYLHWYLQKPGQSPQLLIYKVSNRFSGVPDRFSGSGSGTDFTLKISRVEAEDVGVYYCSQNTHVPPTFGQGTKVEIERTVAAPSVFIFPPSDEQLKSGTASVVCLLNNFYPREAKVQWKVDNALQSGNSQESVTEQDSKDSTYSLSSTLTLSKADYEKHKVYACEVTHQGLSSPVTKSFNRGEC
notes: He Ab; mutation in the GpH7-B3 chain only; also called He Ab
B2: GpH7-A5/GpH7-B3 variant L328_18N/GpL16-k0 (antibody, human IgG1, kappa)
heavy 1: not shown
heavy 2: not shown
light: B1 light
notes: as for B1
B3: GpH7-A5/GpH7-B3 variant P329_04F/GpL16-k0 (antibody, human IgG1, kappa)
heavy 1: not shown
heavy 2: not shown
light: B1 light
notes: as for B1
B4: GpH7-A5/GpH7-B3 variant P329_14T/GpL16-k0 (antibody, human IgG1, kappa)
heavy 1: not shown
heavy 2: not shown
light: B1 light
notes: as for B1
B5: GpH7-A5/GpH7-B3 variant P329_18N/GpL16-k0 (antibody, human IgG1, kappa)
heavy 1: not shown
heavy 2: not shown
light: B1 light
notes: as for B1
B6: GpH7-A5/GpH7-B3 variant P329_08L/GpL16-k0 (antibody, human IgG1, kappa)
heavy 1: not shown
heavy 2: not shown
light: B1 light
notes: as for B1
B7: GpH7-A5/GpH7-B3 variant T335_11K/GpL16-k0 (antibody, human IgG1, kappa)
heavy 1: not shown
heavy 2: not shown
light: B1 light
notes: as for B1
B8: GpH7-A5/GpH7-B3 variant P329_12R/GpL16-k0 (antibody, human IgG1, kappa)
heavy 1: not shown
heavy 2: not shown
light: B1 light
notes: as for B1
B9: GpH7-A5/GpH7-B3 variant T335_12R/GpL16-k0 (antibody, human IgG1, kappa)
heavy 1: not shown
heavy 2: not shown
light: B1 light
notes: as for B1
B10: GpH7-A5/GpH7-B3 variant L328_05P/GpL16-k0 (antibody, human IgG1, kappa)
heavy 1: not shown
heavy 2: not shown
light: B1 light
notes: as for B1
B11: GpH7-A5/GpH7-B3 variant P329_10E/GpL16-k0 (antibody, human IgG1, kappa)
heavy 1: not shown
heavy 2: not shown
light: B1 light
notes: as for B1
B12: GpH7-A5/GpH7-B3 variant P329_13S/GpL16-k0 (antibody, human IgG1, kappa)
heavy 1: not shown
heavy 2: not shown
light: B1 light
notes: as for B1
B13: GpH7-A5/GpH7-B3 variant P329_07I/GpL16-k0 (antibody, human IgG1, kappa)
heavy 1: not shown
heavy 2: not shown
light: B1 light
notes: as for B1
B14: GpH7-A5/GpH7-B3 variant P329_02A/GpL16-k0 (antibody, human IgG1, kappa)
heavy 1: not shown
heavy 2: not shown
light: B1 light
notes: as for B1
B15: GpH7-A5/GpH7-B3 variant P329_09D/GpL16-k0 (antibody, human IgG1, kappa)
heavy 1: not shown
heavy 2: not shown
light: B1 light
notes: as for B1
B16: GpH7-A5/GpH7-B3 variant P329_06M/GpL16-k0 (antibody, human IgG1, kappa)
heavy 1: not shown
heavy 2: not shown
light: B1 light
notes: as for B1
B17: GpH7-A5/GpH7-B3 variant P329_16H/GpL16-k0 (antibody, human IgG1, kappa)
heavy 1: not shown
heavy 2: not shown
light: B1 light
notes: as for B1

The binders below were run against T2, FcγRIa (human, UniProt P12314 16-292) (assay: ratio of He/Con_1a to He/Con_2b (FcγRIa over FcγRIIb), SPR).
T2 construct: extracellular domain; also called FcgRI; CD64
Procedure: (§1) The heterodimerized antibodies He Abs in which one of the H chains was introduced with an alteration were assayed for their binding activities to each activating FcγR and inhibitory FcγR according to the method described in Example 4. […] The activating FcγRs in FIGS. 26, 27, 28, and 29 are FcγRIa, FcγRIIa (R), FcγRIIa (H), and FcγRIIIa, respectively.
(§2) Analysis of interaction between objective antibody and the FcγR was carried out using Biacore T100 (GE Healthcare). HBS-EP+ (GE Healthcare) was used as the running buffer, and the measurement temperature was set to 25° C. Chips produced by immobilizing the antigen peptide by the amine coupling method to a Series S Sencor Chip CM5 (GE Healthcare), or alternatively, chips produced by allowing preliminarily biotinylated antigen peptides to interact with and immobilize onto a Series S Sensor Chip SA (certified) (GE Healthcare) were used. Antibodies of interest were captured onto an antigen peptide-immobilized chip, and allowed to interact to each FcγR diluted with running buffer. To regenerate and repeatedly use the chip, the antibodies captured on the chip were washed off by reacting 10 mM glycine-HCl, pH 1.5.

T2 sequence (P12314 16-292): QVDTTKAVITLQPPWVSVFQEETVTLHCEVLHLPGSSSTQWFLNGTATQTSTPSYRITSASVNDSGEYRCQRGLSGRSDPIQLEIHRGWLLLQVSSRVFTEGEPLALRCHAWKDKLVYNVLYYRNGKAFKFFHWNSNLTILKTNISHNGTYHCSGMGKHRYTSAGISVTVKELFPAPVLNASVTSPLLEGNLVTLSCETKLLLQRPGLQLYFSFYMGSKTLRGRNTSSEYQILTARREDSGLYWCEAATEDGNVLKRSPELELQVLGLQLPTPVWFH

He_1a/2b (Ia/IIb) | Binder
1.21 | B1
1.22 | B2
2.88 | B3
2.37 | B4
2.29 | B5
2.95 | B6
1.22 | B7
4.22 | B8
1.23 | B9
1.42 | B10
1.5 | B11
2.27 | B12
2.72 | B13
2.52 | B14
1.45 | B15
2.94 | B16
2.45 | B17

Each binder was assayed against T1, FcγRIIb (assay: SPR (Biacore), captured antibody, soluble FcγR; relative to GpH7-A5/GpH7-B3/GpL16-k0 = 100).
Procedure: as §1, §2

He/Con_2b | Binder
80.2 % of control | B1
80.8 % of control | B2
32.2 % of control | B3
37.9 % of control | B4
40.4 % of control | B5
29.1 % of control | B6
91 % of control | B7
17.6 % of control | B8
91.9 % of control | B9
65.1 % of control | B10
52.7 % of control | B11
41 % of control | B12
34.6 % of control | B13
40.5 % of control | B14
53.5 % of control | B15
29.1 % of control | B16
39.1 % of control | B17

These binders were tested against T2, FcγRIa in the same assay as above.
Procedure: as §1, §2

He/Con_1a | Binder
97.2 % of control | B1
98.7 % of control | B2
92.7 % of control | B3
89.7 % of control | B4
92.4 % of control | B5
85.7 % of control | B6
111 % of control | B7
74.3 % of control | B8
113 % of control | B9
92.2 % of control | B10
78.8 % of control | B11
93.3 % of control | B12
94.1 % of control | B13
102 % of control | B14
77.6 % of control | B15
85.3 % of control | B16
95.6 % of control | B17
